Assay results published in PMC9140718.
Each block holds one substance with its values, some of them ahead of it.

Experiments:
[1] = target: plasma FXI of Maine Coon cats homozygous for the M516 variant (feline (endogenous in Maine Coon cat plasma)); experiment: non-reducing SDS-PAGE with Western blot; citrated plasma (1 µL) on non-reducing 7.5% polyacrylamide gels; detected with biotinylated IgG 14E11 and streptavidin-horseradish peroxidase
[2] = target: plasma FXI of Maine Coon cats homozygous for wild-type FXI (feline (endogenous in Maine Coon cat plasma)); experiment: as above
[3] = target: plasma-derived human FXI (pFXI) (human); experiment: SDS-PAGE under non-reducing and reducing conditions; purified FXI on a 7.5% polyacrylamide gel, Coomassie blue stained; homodimer unreduced, monomer reduced
[4] = target: recombinant variant feline factor XI (fFXI-M516) (feline (Felis catus)); experiment: as above
[5] = target: recombinant wild-type feline factor XI (fFXI-V516) (feline (Felis catus)); experiment: as above
[6] = target: recombinant wild-type human factor XI (hFXI-V516) (human); experiment: as above

- stoichiometry N [1]: 2
Substance: plasma FXI of Maine Coon cats homozygous for the M516 variant (natural protein)

- stoichiometry N [2]: 2
Substance: plasma FXI of Maine Coon cats homozygous for wild-type FXI (natural protein)

- stoichiometry N [3]: 2
Substance: plasma-derived human FXI (pFXI) (natural protein)

- stoichiometry N [4]: 2
Substance: recombinant variant feline factor XI (fFXI-M516) (natural protein)

- stoichiometry N [5]: 2
Substance: recombinant wild-type feline factor XI (fFXI-V516) (natural protein)

- stoichiometry N [6]: 2
Substance: recombinant wild-type human factor XI (hFXI-V516) (natural protein)
